Reference: US20090227507A1, “Angiotensin (1-7) Dosage Forms and Uses Thereof” (UNIVERSITY OF SOUTHERN CALIFORNIA, priority 2008, published 2009)

Experiment: Hematology profile (CBC with differential, platelet count) in healthy men;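 as to Platelet Count, Median Change from Baseline: Thousands of platelets per mm³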;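 as to Platelet Count, Median: Thousands of platelets per mm³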
Type: in vivo, human
Procedure: Pharmacological Effect: The following evaluations (under efficacy and safety in the protocol) were performed: • Effects on the number of mature blood cells: • 1. CBC (with differential), platelet count, reticulocyte count. • Effects on early hematopoietic progenitor cells and mature lymphocyte subsets in the periphery: • 1. Flow cytometry to evaluate frequency of peripheral blood progenitor cells (eg, CD34^+) and lymphocyte subsets (eg, CD3, CD4, CD8) in peripheral blood. • 2. Collection of blood for later possible culture for progenitor cells (eg, colony forming units-granulocyte/macrophage [CFU-GM]) to evaluate potential effects on CD34^+ hematopoietic progenitor cells in peripheral blood. • 3.
The effect of USB003 on the number of mature blood cells was assessed by the complete blood count with differential, platelet and reticulocyte counts. The effects on early hematopoietic progenitor cells and mature lymphocyte subsets in the periphery were assessed by flow cytometry. In addition, blood was collected and processed to enable culture of progenitors at a later time.
Red blood cell (RBC) count, RBC indices, white blood cell count (WBC) with differential, reticulocyte count, platelet count, hemoglobin (Hb), hematocrit (Hct), plasma hemoglobin, peripheral flow cytometry, including CD34^+, flow cytometry for enumeration of CD3, CD4, and CD8 lymphocytes, and culture for progenitor cells in peripheral blood including colony-forming units-granulocyte/macrophage (CFU-GM).

[1] = 200 μg/kg, N = 9, baseline to Day 8
[2] = 200 μg/kg, N = 9, baseline to Day 20
[3] = 300 μg/kg, N = 8, baseline to Day 8

## Asp-Arg-Val-Tyr-Ile-His-Pro [USB003]
200 ug/kg and 300 ug/kg, at 20 days
  absolute neutrophil concentrations: apparent dose-related increase
200 μg/kg dose group, Day 8 and Day 20, compared with placebo
  shifts in eosinophils from high at baseline to normal: notable number of subjects
[1]
  Absolute Eosinophils shift H-N, number of subjects: 1
  Absolute Eosinophils shift L-N, number of subjects: — (“—” = 0)
  Absolute Eosinophils shift N-H, number of subjects: — (“—” = 0)
  Absolute Eosinophils shift N-L, number of subjects: — (“—” = 0)
  Absolute Reticulocytes shift H-N, number of subjects: — (“—” = 0)
  Absolute Reticulocytes shift L-N, number of subjects: — (“—” = 0)
  Absolute Reticulocytes shift N-H, number of subjects: — (“—” = 0)
  Absolute Reticulocytes shift N-L, number of subjects: — (“—” = 0)
  Eosinophils shift H-N, number of subjects: 3
  Eosinophils shift L-N, number of subjects: — (“—” = 0)
  Eosinophils shift N-H, number of subjects: — (“—” = 0)
  Eosinophils shift N-L, number of subjects: — (“—” = 0)
  Hematocrit shift H-N, number of subjects: — (“—” = 0)
  Hematocrit shift L-N, number of subjects: — (“—” = 0)
  Hematocrit shift N-H, number of subjects: — (“—” = 0)
  Hematocrit shift N-L, number of subjects: — (“—” = 0)
  Hemoglobin shift H-N, number of subjects: — (“—” = 0)
  Hemoglobin shift L-N, number of subjects: — (“—” = 0)
  Hemoglobin shift N-H, number of subjects: — (“—” = 0)
  Hemoglobin shift N-L, number of subjects: — (“—” = 0)
  Lymphocytes shift H-N, number of subjects: 1
  Lymphocytes shift L-N, number of subjects: 1
  Lymphocytes shift N-H, number of subjects: — (“—” = 0)
  Lymphocytes shift N-L, number of subjects: — (“—” = 0)
  Plasma Hemoglobin shift H-N, number of subjects: — (“—” = 0)
  Plasma Hemoglobin shift L-N, number of subjects: — (“—” = 0)
  Plasma Hemoglobin shift N-H, number of subjects: — (“—” = 0)
  Plasma Hemoglobin shift N-L, number of subjects: — (“—” = 0)
  Platelet Count shift H-N, number of subjects: — (“—” = 0)
  Platelet Count shift L-N, number of subjects: — (“—” = 0)
  Platelet Count shift N-H, number of subjects: 1
  Platelet Count shift N-L, number of subjects: — (“—” = 0)
  RBC shift H-N, number of subjects: — (“—” = 0)
  RBC shift L-N, number of subjects: — (“—” = 0)
  RBC shift N-H, number of subjects: — (“—” = 0)
  RBC shift N-L, number of subjects: — (“—” = 0)
  Segmented Neutrophils shift H-N, number of subjects: 1
  Segmented Neutrophils shift L-N, number of subjects: — (“—” = 0)
  Segmented Neutrophils shift N-H, number of subjects: — (“—” = 0)
  Segmented Neutrophils shift N-L, number of subjects: — (“—” = 0)
[2]
  Absolute Eosinophils shift H-N, number of subjects: — (“—” = 0)
  Absolute Eosinophils shift L-N, number of subjects: — (“—” = 0)
  Absolute Eosinophils shift N-H, number of subjects: 1
  Absolute Eosinophils shift N-L, number of subjects: — (“—” = 0)
  Absolute Neutrophils shift H-N, number of subjects: — (“—” = 0)
  Absolute Neutrophils shift L-N, number of subjects: — (“—” = 0)
  Absolute Neutrophils shift N-H, number of subjects: — (“—” = 0)
  Absolute Neutrophils shift N-L, number of subjects: — (“—” = 0)
  Absolute Reticulocytes shift H-N, number of subjects: — (“—” = 0)
  Absolute Reticulocytes shift L-N, number of subjects: — (“—” = 0)
  Absolute Reticulocytes shift N-H, number of subjects: 2
  Absolute Reticulocytes shift N-L, number of subjects: — (“—” = 0)
  Eosinophils shift H-N, number of subjects: 2
  Eosinophils shift L-N, number of subjects: — (“—” = 0)
  Eosinophils shift N-H, number of subjects: — (“—” = 0)
  Eosinophils shift N-L, number of subjects: — (“—” = 0)
  Hematocrit shift H-N, number of subjects: — (“—” = 0)
  Hematocrit shift L-N, number of subjects: — (“—” = 0)
  Hematocrit shift N-H, number of subjects: — (“—” = 0)
  Hematocrit shift N-L, number of subjects: — (“—” = 0)
  Hemoglobin shift H-N, number of subjects: — (“—” = 0)
  Hemoglobin shift L-N, number of subjects: 1
  Hemoglobin shift N-H, number of subjects: — (“—” = 0)
  Hemoglobin shift N-L, number of subjects: 1
  Lymphocytes shift H-N, number of subjects: — (“—” = 0)
  Lymphocytes shift L-N, number of subjects: 1
  Lymphocytes shift N-H, number of subjects: — (“—” = 0)
  Lymphocytes shift N-L, number of subjects: — (“—” = 0)
  Monocytes shift H-N, number of subjects: — (“—” = 0)
  Monocytes shift L-N, number of subjects: — (“—” = 0)
  Monocytes shift N-H, number of subjects: — (“—” = 0)
  Monocytes shift N-L, number of subjects: — (“—” = 0)
  Plasma Hemoglobin shift H-N, number of subjects: — (“—” = 0)
  Plasma Hemoglobin shift L-N, number of subjects: — (“—” = 0)
  Plasma Hemoglobin shift N-H, number of subjects: 2
  Plasma Hemoglobin shift N-L, number of subjects: — (“—” = 0)
  Platelet Count shift H-N, number of subjects: — (“—” = 0)
  Platelet Count shift L-N, number of subjects: — (“—” = 0)
  Platelet Count shift N-H, number of subjects: 1
  Platelet Count shift N-L, number of subjects: — (“—” = 0)
  RBC shift H-N, number of subjects: — (“—” = 0)
  RBC shift L-N, number of subjects: — (“—” = 0)
  RBC shift N-H, number of subjects: — (“—” = 0)
  RBC shift N-L, number of subjects: — (“—” = 0)
  RDW shift H-N, number of subjects: — (“—” = 0)
  RDW shift L-N, number of subjects: — (“—” = 0)
  RDW shift N-H, number of subjects: 1
  RDW shift N-L, number of subjects: — (“—” = 0)
  Segmented Neutrophils shift H-N, number of subjects: 1
  Segmented Neutrophils shift L-N, number of subjects: — (“—” = 0)
  Segmented Neutrophils shift N-H, number of subjects: — (“—” = 0)
  Segmented Neutrophils shift N-L, number of subjects: — (“—” = 0)
  WBC shift H-N, number of subjects: — (“—” = 0)
  WBC shift L-N, number of subjects: — (“—” = 0)
  WBC shift N-H, number of subjects: — (“—” = 0)
  WBC shift N-L, number of subjects: — (“—” = 0)
200 μg/kg, Baseline
  Absolute Neutrophils, Median: 3.00 thousands/mm^3
  Hematocrit, Median: 46.50%
  Hemoglobin, Median: 15.30 g/dL
  Lymphocytes, Median: 35.80%
  Platelet Count, Median: 263.0 thousands/mm^3
  WBC, Median: 5.60 thousands/mm^3
200 μg/kg, Day 8
  Absolute Neutrophils, Median: 3.60 thousands/mm^3
  Absolute Neutrophils, Median Change from Baseline: 0.45 thousands/mm^3
  Hematocrit, Median: 43.65%
  Hematocrit, Median Change from Baseline: −1.65%
  Hemoglobin, Median: 15.10 g/dL
  Hemoglobin, Median Change from Baseline: -0.20 g/dL
  Lymphocytes, Median: 32.40%
  Lymphocytes, Median Change from Baseline: −2.25%
  Platelet Count, Median: 242.0 thousands/mm^3
  Platelet Count, Median Change from Baseline: 1.0 thousands/mm^3
  WBC, Median: 6.65 thousands/mm^3
  WBC, Median Change from Baseline: 0.35 thousands/mm^3
200 μg/kg, Day 20
  Absolute Neutrophils, Median: 3.80 thousands/mm^3
  Absolute Neutrophils, Median Change from Baseline: 0.20 thousands/mm^3
  Hematocrit, Median: 43.80%
  Hematocrit, Median Change from Baseline: −1.50%
  Hemoglobin, Median: 14.50 g/dL
  Hemoglobin, Median Change from Baseline: -0.70 g/dL
  Lymphocytes, Median: 31.50%
  Lymphocytes, Median Change from Baseline: −1.80%
  Platelet Count, Median: 250.0 thousands/mm^3
  Platelet Count, Median Change from Baseline: −5 thousands/mm^3
  WBC, Median: 6.20 thousands/mm^3
  WBC, Median Change from Baseline: 0.40 thousands/mm^3
300 ug/kg group, at 20 days
  WBC concentration: relative increase
[3]
  Absolute Eosinophils shift H-N, number of subjects: — (“—” = 0)
  Absolute Eosinophils shift L-N, number of subjects: — (“—” = 0)
  Absolute Eosinophils shift N-H, number of subjects: — (“—” = 0)
  Absolute Eosinophils shift N-L, number of subjects: — (“—” = 0)
  Absolute Reticulocytes shift H-N, number of subjects: — (“—” = 0)
  Absolute Reticulocytes shift L-N, number of subjects: — (“—” = 0)
  Absolute Reticulocytes shift N-H, number of subjects: 1
  Absolute Reticulocytes shift N-L, number of subjects: — (“—” = 0)
  Eosinophils shift H-N, number of subjects: 1
